Measurements as given in IntAct's records for PubMed 30126976.

B1: Copine-8 (Homo sapiens), Q86YQ8 (parent)
chain: MDSRYNSTAGIGDLNQLSAAIPATRVEVSVSCRNLLDRDTFSKSDPICVLYVQGVGNKEWREFGRTEVIDNTLNPDFVRKFILDYFFEERENLRFDLYDVDSKSPNLSKHDFLGQVFCTLGEIVGSQGSRLEKPIVGIPGKKCGTIILTAEELNCCRDAVLMQFCANKLDKKDFFGKSDPFLVFYRSNEDGSFTICHKTEVVKNTLNPVWQAFKISVRALCNGDYDRTIKVEVYDWDRDGSHDFIGEFTTSYRELSRGQSQFNVYEVVNPKKKGKKKKYTNSGTVTLLSFLVETEVSFLDYIKGGTQINFTVAIDFTASNGNPAQPTSLHYMNPYQLNAYGMALKAVGEIVQDYDSDKMFPALGFGAKLPPDGRISHEFALNGNPQNPYCDGIEGVMEAYYRSLKSVQLYGPTNFAPVINHVARYASSVKDGSQYFVLLIVTDGVISDMAQTKESIVNASKLPMSIIIVGVGPAEFDAMVELDGDDVRVSSRGKYAERDIVQFVPFRDYIDRSGNHILSMARLAKDVLAEIPEQFLSYMRARGIKPSPAPPPYTPPTHVLQTQI
B2: FERM and PDZ domain-containing protein 1 (Homo sapiens), Q5SYB0 (parent)
chain: MEELETSLFQTRKAHRIEQMVARWLRRSRDSSARAKVAAADGPARNPTQTLIPVRHTVKIDKDTLLQDYGFHISESLPLTVVAVTAGGSAHGKLFPGDQILQMNNEPAEDLSWERAVDILREAEDSLSITVVRCTSGVPKSSFLTEEKRARLKTNPVKVHFAEEVLISGHSQGNSLLCMPNVLKLYLENGQTKAFKFEANTTVKDIILTVKEKLSIRSIEYFALALEEQYSISRLHLLHEEELIQQVVEREESHDYRCLFRVCFVPKDPLDLLKEDPVAFEYLYLQSCSDVLQERFAVEMKCSSALRLAALHIQERIYACAQPQKISLKYIEKDWGIENFISPTLLRNMKGKDIKKAISFHMKRNQNLLEPRQKQLISAAQLRLNYLQILGELKTYGGRIFNATLMLQDRESYIALLVGAKYGISQVINSKLNIMSTLAEFANISRVELTEESEKVSVVKVYLQDVKVLTLLLESNSAKDLACLIAGYYRLLVDPVTSIFLWPGNKQQAHRVSAEEGYESRACSDSEESSEVDCVLEPLSDRRLVKLAPCRSLIKEEQPPGNSPTPEVARRGPSTCGASSTTDSAESEASDSANTESRGYRTSGSSESMDALEEDDLDTCSSSRSTFFHFGSPGLAESIDSDSQEERSGIETSGFLCLLDLAQRANPQCQKTEFSESAALETFGWAPELSTVRLDPRLYEGSHADYYSLCSSVSPASYLSDSSESTASRQGGAPPAWGQQGWTEAQPSSMLEPLALHPPLAFEDGSSDEEYYDAADKLTPPGPPSGPRDVSTAEPSATSLQNKASTSSPENSLPCGPDGRQPSRRGGVKKYAKTLRKRRSFLQTDYTSQVSFPLVPSASLESVDDVCYYDREPYLALGAPSPTVSSLQDMQGEPGLLETKALGLLAPLRETKSTNPASRVMEMEPETMETKSVIDSRVSSISAIRFRIDPNNKENSGVVPAASSSASTPHCSNPGSSGPDTAQARPSQILPLSQDLDGIAPKEPTIEHGDSSFSLSSGDPNPDRACLASNPGLNNVSQGDTLELQLEPHVQLEMGLESFCTNHIQETAPKYTEPLLSPRDEPRSDECGINPGEKIASIPTKEEPQGQLSLERDREVTNKNGTNVFQEESRKDSGDSPGDVSNNVSQTLDISSPAGKIVTSLSLDAPVTGTEQIPPHPPRDPQGQSREPPGQGCQAQEQKLFVELDLDPDFFLGKQTVSPAVPPEGIKAEAPNHVTGQDIAPRDSPEWVCFNPEPSLPEPLPCPQEDPHLETSNHCLLSEGKSDSSSICLSAEKSFLCFAPESHPEVSASLRVATSLGFAGMNEMVAPRIGMDQCSCQFSYATCFRGPQPETEEEDRDLEAHPMAPLTSPPSAGSPVVLPWRPARAHSCTTAPLSRKSHIWPEYCSRALRQLKATPASTPEGFIQLMESLLELQDILETSWGVGNKHPPEKCTWHFTESRSRLCMGSQKLLSSCRHVIRMDQSPEEMQGAVRDTFQHLVQLAGLCFQFTDCSRCSARHREAAGNLRDVVYTYHQFIEAAKSTCERGYHDLSVKLLARQCTALTAAVFCLTQKFRASTAL
B3: Peroxiredoxin-5, mitochondrial (Homo sapiens), P30044 (parent)
chain: MGLAGVCALRRSAGYILVGGAGGQSAAAAARRYSEGEWASGGVRSFSRAAAAMAPIKVGDAIPAVEVFEGEPGNKVNLAELFKGKKGVLFGVPGAFTPGCSKTHLPGFVEQAEALKAKGVQVVACLSVNDAFVTGEWGRAHKAEGKVRLLADPTGAFGKETDLLLDDSLVSIFGNRRLKRFSMVVQDGIVKALNVEPDGTGLTCSLAPNIISQL
B4: Disintegrin and metalloproteinase domain-containing protein 22 (Homo sapiens), Q9P0K1 (parent)
chain: MQAAVAVSVPFLLLCVLGTCPPARCGQAGDASLMELEKRKENRFVERQSIVPLRLIYRSGGEDESRHDALDTRVRGDLGGPQLTHVDQASFQVDAFGTSFILDVVLNHDLLSSEYIERHIEHGGKTVEVKGGEHCYYQGHIRGNPDSFVALSTCHGLHGMFYDGNHTYLIEPEENDTTQEDFHFHSVYKSRLFEFSLDDLPSEFQQVNITPSKFILKPRPKRSKRQLRRYPRNVEEETKYIELMIVNDHLMFKKHRLSVVHTNTYAKSVVNMADLIYKDQLKTRIVLVAMETWATDNKFAISENPLITLREFMKYRRDFIKEKSDAVHLFSGSQFESSRSGAAYIGGICSLLKGGGVNEFGKTDLMAVTLAQSLAHNIGIISDKRKLASGECKCEDTWSGCIMGDTGYYLPKKFTQCNIEEYHDFLNSGGGACLFNKPSKLLDPPECGNGFIETGEECDCGTPAECVLEGAECCKKCTLTQDSQCSDGLCCKKCKFQPMGTVCREAVNDCDIRETCSGNSSQCAPNIHKMDGYSCDGVQGICFGGRCKTRDRQCKYIWGQKVTASDKYCYEKLNIEGTEKGNCGKDKDTWIQCNKRDVLCGYLLCTNIGNIPRLGELDGEITSTLVVQQGRTLNCSGGHVKLEEDVDLGYVEDGTPCGPQMMCLEHRCLPVASFNFSTCLSSKEGTICSGNGVCSNELKCVCNRHWIGSDCNTYFPHNDDAKTGITLSGNGVAGTNIIIGIIAGTILVLALILGITAWGYKNYREQRQLPQGDYVKKPGDGDSFYSDIPPGVSTNSASSSKKRSNGLSHSWSERIPDTKHISDICENGRPRSNSWQGNLGGNKKKIRGKRFRPRSNSTETLSPAKSPSSSTGSIASSRKYPYPMPPLPDEDKKVNRQSARLWETSI
B5: Ribosomal protein S6 kinase alpha-1 (Homo sapiens), Q15418 (parent)
chain: MPLAQLKEPWPLMELVPLDPENGQTSGEEAGLQPSKDEGVLKEISITHHVKAGSEKADPSHFELLKVLGQGSFGKVFLVRKVTRPDSGHLYAMKVLKKATLKVRDRVRTKMERDILADVNHPFVVKLHYAFQTEGKLYLILDFLRGGDLFTRLSKEVMFTEEDVKFYLAELALGLDHLHSLGIIYRDLKPENILLDEEGHIKLTDFGLSKEAIDHEKKAYSFCGTVEYMAPEVVNRQGHSHSADWWSYGVLMFEMLTGSLPFQGKDRKETMTLILKAKLGMPQFLSTEAQSLLRALFKRNPANRLGSGPDGAEEIKRHVFYSTIDWNKLYRREIKPPFKPAVAQPDDTFYFDTEFTSRTPKDSPGIPPSAGAHQLFRGFSFVATGLMEDDGKPRAPQAPLHSVVQQLHGKNLVFSDGYVVKETIGVGSYSECKRCVHKATNMEYAVKVIDKSKRDPSEEIEILLRYGQHPNIITLKDVYDDGKHVYLVTELMRGGELLDKILRQKFFSEREASFVLHTIGKTVEYLHSQGVVHRDLKPSNILYVDESGNPECLRICDFGFAKQLRAENGLLMTPCYTANFVAPEVLKRQGYDEGCDIWSLGILLYTMLAGYTPFANGPSDTPEEILTRIGSGKFTLSGGNWNTVSETAKDLVSKMLHVDPHQRLTAKQVLQHPWVTQKDKLPQSQLSHQDLQLVKGAMAATYSALNSSKPTPQLKPIESSILAQRRVRKLPSTTL

Variants of: B1
Settings: with scrib_human SCRIB
Target sequence in this assay (Q14160 whole entry): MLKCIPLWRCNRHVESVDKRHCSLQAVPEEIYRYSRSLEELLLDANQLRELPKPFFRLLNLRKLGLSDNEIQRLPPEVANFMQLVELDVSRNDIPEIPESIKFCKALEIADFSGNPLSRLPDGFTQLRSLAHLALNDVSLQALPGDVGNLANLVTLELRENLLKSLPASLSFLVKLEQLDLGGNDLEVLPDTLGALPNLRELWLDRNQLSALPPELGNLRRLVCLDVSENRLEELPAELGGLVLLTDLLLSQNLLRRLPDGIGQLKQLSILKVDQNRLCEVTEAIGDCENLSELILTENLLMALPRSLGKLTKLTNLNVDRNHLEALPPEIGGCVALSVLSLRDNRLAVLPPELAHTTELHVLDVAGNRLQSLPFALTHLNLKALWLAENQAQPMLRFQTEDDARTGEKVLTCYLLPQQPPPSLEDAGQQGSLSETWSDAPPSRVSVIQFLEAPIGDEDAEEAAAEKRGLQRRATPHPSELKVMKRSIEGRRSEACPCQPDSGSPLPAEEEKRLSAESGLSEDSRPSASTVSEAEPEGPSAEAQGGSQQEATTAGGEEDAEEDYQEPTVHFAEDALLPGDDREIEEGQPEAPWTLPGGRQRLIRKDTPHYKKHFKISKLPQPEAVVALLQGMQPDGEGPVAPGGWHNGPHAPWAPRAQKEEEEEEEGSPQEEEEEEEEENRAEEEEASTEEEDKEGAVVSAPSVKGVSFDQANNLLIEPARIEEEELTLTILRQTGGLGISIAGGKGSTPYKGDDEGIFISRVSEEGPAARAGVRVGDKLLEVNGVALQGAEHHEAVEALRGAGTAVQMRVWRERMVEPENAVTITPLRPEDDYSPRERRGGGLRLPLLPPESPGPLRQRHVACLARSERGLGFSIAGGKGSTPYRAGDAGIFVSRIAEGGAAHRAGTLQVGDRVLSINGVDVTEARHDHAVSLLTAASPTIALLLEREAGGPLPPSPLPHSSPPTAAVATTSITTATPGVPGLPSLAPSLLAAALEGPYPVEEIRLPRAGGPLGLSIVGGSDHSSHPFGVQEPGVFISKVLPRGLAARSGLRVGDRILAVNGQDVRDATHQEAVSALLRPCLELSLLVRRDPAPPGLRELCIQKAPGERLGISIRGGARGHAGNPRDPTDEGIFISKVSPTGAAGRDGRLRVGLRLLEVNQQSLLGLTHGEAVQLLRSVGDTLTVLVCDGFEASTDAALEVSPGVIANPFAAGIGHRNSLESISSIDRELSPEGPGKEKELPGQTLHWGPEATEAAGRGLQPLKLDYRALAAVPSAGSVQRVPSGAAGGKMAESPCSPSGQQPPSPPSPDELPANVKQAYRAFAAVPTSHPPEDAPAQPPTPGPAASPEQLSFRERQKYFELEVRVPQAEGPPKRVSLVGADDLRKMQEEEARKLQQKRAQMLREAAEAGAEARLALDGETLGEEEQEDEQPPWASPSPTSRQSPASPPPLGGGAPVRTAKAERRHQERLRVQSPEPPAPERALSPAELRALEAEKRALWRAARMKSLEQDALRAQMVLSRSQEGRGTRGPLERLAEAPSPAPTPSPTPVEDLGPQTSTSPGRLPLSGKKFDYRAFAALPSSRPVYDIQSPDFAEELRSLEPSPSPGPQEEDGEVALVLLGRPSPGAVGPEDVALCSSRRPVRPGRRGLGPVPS

Variant	effect of a mutation on the interaction
MDSRYNSTAGIGDLNQLSAAIPATRVEVSVSCRNLLDRDTFSKSDPICVLYVQGVGNKEWREFGRTEVIDNTLNPDFVRKFILDYFFEERENLRFDLYDVDSKSPNLSKHDFLGQVFCTLGEIVGSQGSRLEKPIVGIPGKKCGTIILTAEELNCCRDAVLMQFCANKLDKKDFFGKSDPFLVFYRSNEDGSFTICHKTEVVKNTLNPVWQAFKISVRALCNGDYDRTIKVEVYDWDRDGSHDFIGEFTTSYRELSRGQSQFNVYEVVNPKKKGKKKKYTNSGTVTLLSFLVETEVSFLDYIKGGTQINFTVAIDFTASNGNPAQPTSLHYMNPYQLNAYGMALKAVGEIVQDYDSDKMFPALGFGAKLPPDGRISHEFALNGNPQNPYCDGIEGVMEAYYRSLKSVQLYGPTNFAPVINHVARYASSVKDGSQYFVLLIVTDGVISDMAQTKESIVNASKLPMSIIIVGVGPAEFDAMVELDGDDVRVSSRGKYAERDIVQFVPFRDYIDRSGNHILSMARLAKDVLAEIPEQFLSYMRARGIKPSPAPPPYTPPEHVLQTQI [T557E]	causing an interaction

Variants of: B2
Settings: with scrib_human SCRIB
Target sequence in this assay (Q14160 whole entry): as the sequence (Q14160 whole entry) above

Variant	effect of a mutation on the interaction
S1575E	increasing interaction strength

Variants of: B3
Settings: with scrib_human SCRIB
Target sequence in this assay (Q14160 whole entry): as the sequence (Q14160 whole entry) above

Variant	effect of a mutation on the interaction
MGLAGVCALRRSAGYILVGGAGGQSAAAAARRYSEGEWASGGVRSFSRAAAAMAPIKVGDAIPAVEVFEGEPGNKVNLAELFKGKKGVLFGVPGAFTPGCSKTHLPGFVEQAEALKAKGVQVVACLSVNDAFVTGEWGRAHKAEGKVRLLADPTGAFGKETDLLLDDSLVSIFGNRRLKRFSMVVQDGIVKALNVEPDGTGLTCSLAPNIIEQL [S212E]	with no effect

Variants of: B4
Settings: with scrib_human SCRIB
Target sequence in this assay (Q14160 whole entry): as the sequence (Q14160 whole entry) above

Variant	effect of a mutation on the interaction
S898E	decreasing interaction strength

Variants of: B5
Settings: with scrib_human SCRIB
Target sequence in this assay (Q14160 whole entry): as the sequence (Q14160 whole entry) above

Variant	effect of a mutation on the interaction
S732E	increasing interaction strength
